Here are results for 41 sequences from the nanobody polyreactivity screen of Harvey et al. (2022).

The data set can be described thus: yeast display, Sf9 membrane polyspecificity reagent, FACS + sequencing; frameworks hold sequencing errors. The essentials:
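In a synthetic yeast display library (Saccharomyces cerevisiae BJ5465), nanobody expression was induced with galactose for 36–48 hours. FACS gates were set low and high (top ~1%) using anti-HA fluorescence for expression and streptavidin fluorescence for binding of the Sf9 membrane reagent. Each polyreactivity label is drawn from the gate of origin.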
For the sequence “QVQLVESRGGLVQAGGSLRLSCAASGIIFDTNAMGWYRQAPGKERELVATITQRGGTTYYADSVKGRFTISRDNAKNTVYLQMNSLKPEDTAVYYCNAGPVRLPYDSWGQGTQVTVSS”, the “polyreactivity (PSR sort gate)” value is listed as “low polyreactivity”.
For the sequence “QVQLVESRGGLVQAGGSLRLSCAASGITLYGYAMGWYRQAPGKERELVAAISRSGSSTYYADSVKGRFTISRDNAKNTVYVQMNSLKPEDTAVYYCNSEKYYLAYLLPFNYWGQGTQVTVSS”, the “polyreactivity (PSR sort gate)” value was “high polyreactivity”.
As for “QVQLVESRGGLVQAGGSLRLSCAASGLTFRYYAMGWYRQAPGKERELVAAITASVGSTYYADSVKGRFTISRDNAKNTVYLQMNSLKPEDTAVYYCAADSEQDNLRYYRWVWYYYWGQGTQVTVSS”, the “polyreactivity (PSR sort gate)” value is on record as “low polyreactivity”.
The same measure for “QVQLVESRGGLVQAGGSLRLSCAASGMTFSDYPMGLYRQAPGKEREFVSAITSGGRTNYADSVKGRFTISRDNAKNTVYLQMNSLKPEDTAVYYCAAVYTYVYYYHYPYYYWGQGTQVTVSS”: “low polyreactivity”; for “QVQLVESRGGLVQAGGSLRLSCAASGRIFGSYAMGWYRQAPGKERVLVAAISYSGGSTYYADSVKGRFTISRDNAKNTVYLQMNSLKPEDTAVYYSNVDRYYGYFSVRGGYWGQGTQVTVSS”: “low polyreactivity”; for “QVQLVESRGGLVQAGGSLRLSCAASGRIFGYYAMGWYRQAPGKERELVATIRGGGSTNYADSVKGRFTISRDNAKNTVYLQMNSLKPEDTAVYYCAKPGAKWRGFDYWGQGTQVTVSS”: “low polyreactivity”.
Consider “QVQLVESRGGLVQAGGSLRLSCAASGRIFSNNAMGCYRQAPGKERELVAAITASSGSTYYADSVKGRFTISRDNAKNTVYLQMNSLKPEDTAVYYCAATLRWGFRWYFGFDYWGQGTQLTVSS”, for which the “polyreactivity (PSR sort gate)” value was “high polyreactivity”.
In the case of “QVQLVESRGGLVQAGGSLRLSCAASGRILPYHVMGWYSQAPGKERELVAAISSGGTTDYADSVKGRFTISRDNANNTVYLQMNSLKPEDTAVYYCAATYDYWTWGYDYWGQGTQVTVSS”, the “polyreactivity (PSR sort gate)” value is “low polyreactivity”.
On to “QVQLVESRGGLVQAGGSLRLSCAASGRTFHRNAMGWYRQPPGKERELVAAITGDGRTNYADSVKGRFTISRDNAKNTVYLQMNSLKPVDTAVYYCAARFSYRSYDYWGQGTQVTVSS”, for which the “polyreactivity (PSR sort gate)” value is reported as “low polyreactivity”.
Turning to “QVQLVESRGGLVQAGGSLRLSCAASGRTFSGNAMGWYRQAPGKERELVAAITSVGTTNYADSVKGRFTISRDNANNTVYLQMNSLKPEHTAVYYCAADPPSDYYKYDYWGHGTQVTVSS”, the “polyreactivity (PSR sort gate)” value is listed as “low polyreactivity”.
Turning to “QVQLVESRGGLVQAGGSLRLSCAASGRTIYPYTMGCYRQAPGKERELVAAISSSGTRTYYADSVKGRFTISRDIAKNTVYLQMNSLKPEDTAVYDCATRRPGSFGYWGQGTQVTVSS”, the “polyreactivity (PSR sort gate)” value is given as “high polyreactivity”.
The same measure for “QVQLVESRGGLVQAGGSLRLSCAASGSIFDGYAMGWYRQAPGKERELVAAITWSGGRTYYADSVKGRFTISRDNAKNTVYLQMNSLKPEDTAVYYCNAVTGSWRYDYWGQGTQVTVSS”: “high polyreactivity”; for “QVQLVESRGGLVQAGGSLRLSCAASGSIFLYAMGWYRQEPGKQRELVAAISGGGRTNYADSVKGRFTISRDNAKNTVYLQMNSMKPEDTAVYYCAADPVYWYSPMDYWGQGTQVTVSS”: “low polyreactivity”; for “QVQLVESRGGLVQAGGSLRLSCAASGSIFPYYAMGWYRQAPGKERELVAAISLSGVSTTYADSVKGRFTISRDNAKNTVYLQMNSLKPVDTAVYYCAAKSFWSRYVGGYYWGQGTQVTVSS”: “high polyreactivity”.
In the case of “QVQLVESRGGLVQAGGSLRLSCAASGSIFRSYAMGWYRQAPGKERELVAAIRGSDGNTYYADSVKGRFTISRDNPKNTVYLQMNSLKPEDTAVYYCAADGCLVDDSATRLYYWGQGTQVTVSS”, the “polyreactivity (PSR sort gate)” value is “high polyreactivity”.
Under “QVQLVESRGGLVQAGGSLRLSCAASGSIFSFYAMGWYRQAPGKERELVATITSGGSTYYADSVKGRFSISRDNAKNTVYLQMNSLKPEDTAVYYCAARGNFGANPGRKHGFDYWGQGTQVTVSS” stands “high polyreactivity”.
Under “QVQLVESRGGLVQAGGSLRLSCAASGSIFYRYARGWYRQAPGKERELVAAITYSGGRTYYADSVKGRFTISRDNAKNTVYLQMNSLKPEDTAVYYCAAEKQSYGSPQGYDYWGQGTQVTVSS” stands “low polyreactivity”; under “QVQLVESRGGLVQAGGSLRLSCAASGSTFFYNAMGWYRQAPGKEREFVAAITNGVITNYADSVKGRFTISRDNAKNTVYLQMNSLKPEDTAVYYCAALRWSPRSRYQYNYWGQGTQVTVSS”, “high polyreactivity”.
Regarding “QVQLVESRGGLVQAGGSLRLSCAASGSTFGPYTMGWYRQAPGKERELDAAISWNGGRTSYADSVKGRFTLSRDNAKNTVYLQKNSLKPEDTAGYYCAAGYFVGIYKRFYWGQGTQVTVSS”, the “polyreactivity (PSR sort gate)” value is on record as “high polyreactivity”.
The same measure for “QVQLVESRGGLVQAGGSLRLSCAASGSTFPGYAMGCYRQAPGKERELVAAISRSGGSTSYADSVKGRFTISRDKAQNTVYLQLHSLKPEDTEVYYCAAQVQGTSRAKQRGGIGELDYWGQGTQVTVSS”: “low polyreactivity”; for “QVQLVESRGGLVQAGGSLRLSCAASGSTFSPYVMGWYREAPGKERELFAAIRGRGGNTYYADSVKGRFTISRDNAKNTVYLQMNSLKPEDSAVYYCAAQSFAQYGWRYGDWGQVTQVTVSS”: “high polyreactivity”.
With “QVQLVESRGGLVQAGGSLRLSCAASGYIFGDYAKGWYRQAPGKERELVAAITQTGGNTYYADSVKGRFTISRDNAKKTVYLQMNSLKPEDTAVYYCAAPALGNYFYGYDYWGQGTQVTVSS”, the “polyreactivity (PSR sort gate)” value is reported as “low polyreactivity”.
On to “QVQLVESRGGLVQAGGSLRLSCAASGYTFQRYAMGCYRQAPGKEREMVAAISWSSGTTYYADSVKGRFTISRDNAKNTVYLQMNSLKPEDTAVYYCAAAGRQSGGRFYYWGQGTQVTVSS”, for which the “polyreactivity (PSR sort gate)” value was “high polyreactivity”.
The same measure for “QVQLVESRGGLVQAGGSLRLSCAASVGTFGLNAMGWYSQAPGKERELVADIDGRGGSTYYADSVKGRFTISRDNAKNTFDLQMNSLKPEDTAVYYSAARAPFLSVPSELDYWGQGTQVTVSS”: “low polyreactivity”; for “QVQLVESRGGLVQAGGSLRLSCDASGSTIFENVMGWYRQAPGKEREFVAAINTSGGSTYYADSVKGRFTISRDNAKNTVYLQMNSLKPEDTAVYYCARDSYWEMDYWGQGTQVTVSS”: “low polyreactivity”.
As for “QVQLVESRGGLVQAGGSLRLSCPASGSTFVSNAMGWYRQAPGKERELVAAISKSGGSTYYADSVKGRFTISRDNAKNTVYLQMISLKPEDTAVYYCAKYNAKSFYGQYDYWGQGTQVTVSS”, the “polyreactivity (PSR sort gate)” value is reported as “high polyreactivity”.
The same measure for “QVQLVESRGGLVQAGGSLRLSFAASGFTFGSYSMVWYRQAPGKERELVADITRRGDNTYYADSVKGRFTISRDNAKNTVYLQMNSLKPEDSAVYYCNAAKGGRYPDYDYWGQGTQVTVSS”: “high polyreactivity”; for “QVQLVESRGGLVQAGGSLRLSFAASGSTFIKNAMGWYRQAPGKEWELVAAITSGGSRSYADSVKGRFTISRDNAKNTVYLQMNSLKPEDTAVYYCATDHDIGYNFYRYDYWGQGTQVTVSS”: “low polyreactivity”; for “QVQLVESRGGLVQAGGSLRLSSASSGSIFDIYEMGRYRQAPGKERELLASITWSRGSTYYADSVKGRFTISRDNAKNSVYLQINCLKPEDTAVYYCGTDKLFGRTVRMDYWGQGTQVTVSS”: “low polyreactivity”.
Under “QVQLVESRGGLVQAGGSLRLTCAASGYTFVYNGMGWYRQAPGKERELVAAFRRRTGTTYYADSVKGRFTISRDNAKNTVYLQMNSLKPEDSSVYYSAATGFWCYDWGQGSQVTVSS” stands “high polyreactivity”; under “QVQLVESRGGLVQAGGSLRVSCAASGRTFGVNAMGWYRQAPGKERELVAAISTSGGSTYYADSVKGRFTISRDNAKNTVYLQMNSLIPEDTAVYYCNTGRGRYVHGRDYDYWGQGTQVTVSS”, “low polyreactivity”.
The same measure for “QVQLVESRGGLVQARGSLRLSSAASGFIFNANAMGCYRPAPGKESELVAAIDDGDSTYADSVKGRFTISRDNAKNTVYLQMNSLKPEDTAVYYCAVDGGEFSSYGYWGEGTQVTVSS”: “low polyreactivity”; for “QVQLVESRGGSVQAGGSLRLSCAASGNIFYYAMGWYRQAPGKERELVAAISASGGSSYYADSVKGRFTISRDNAKNTVYLQMNSLKPEDTAVYYCKAVFYRGPGAQGDPRRRSDYWGQGTQVTVSS”: “high polyreactivity”.
On to “QVQLVESRGVLVQAGGSVRVSCAASGSTFTFNAMGWYRQAPGKVRELVADITSGGRTNYADSVKGRFTISRDNAKNTVYLQMNSLKPEDTAVYYCAARWWAHEYPGYDSWGQGTQVTVSS”, for which the “polyreactivity (PSR sort gate)” value is “low polyreactivity”.
Under “QVQLVESRRGLVQAGGSLRLSCAASGRISNEYAMVWSRQAPGKERELVATITFSGGDTYYADSVKGRFTISRHNAKNTVYLHKNSLKPEDSAVYYCAASKWRSYCGGWWRLQFDYWGQGTQVTVSS” stands “low polyreactivity”; under “QVQLVESSGGLVQAGGSLRLSCAASGFNFKRYAMGWSRQAPGKEREMVAAINSGGSTNYADSVKGRFTISRDNAKNTVYLQMNSLKPEDTAVYYCAASTSRYYWYALRDYWGQGTQVTVSS”, “high polyreactivity”.
“QVQLVESSGGLVQAGGSLRLSCAASGITFYYYAMGWYRQAPGKERELVAVITGNGGRTYYADSVKGRFTISRDNAKNTVYLQMNSLKPEDTAVYYCAALYDGIYDSWGQGTQVTVSS”: the “polyreactivity (PSR sort gate)” value is on record as “high polyreactivity”.
Under “QVQLVESVAGLVQAGGSLRLSCAASGSTFTGNAMGWYRQAPRKERELVAAITKGGSRTYYADSVKGRFTISRDNAKNTVYLQMNSLKPEDTAVYYCAAIERYSYLLYPKFDYWGQGTQVTVSS” stands “high polyreactivity”.
Consider “QVQLVESVGALVQAGGSLRLSCAASGSIFGSNAMGGYRQAPGKERELVAAITWSGTSTYYADSVKGRFTISRDNAKNTVYLQMNSLKPEDTAVYYCARGGYVRAARLVIPYYYWGQGTQVTVSS”, for which the “polyreactivity (PSR sort gate)” value is “low polyreactivity”.
The same measure for “QVQLVESVGCLVQARGSLRLSSAASGLIFPKYAMGWYRPAHGKERELVAAISSSGGSTYYADSVMGRFTISRVNAKNTVYLQMNSLKPEDTAVYYCAAKRFTTVTGYGYWGQGTQVTVSS”: “high polyreactivity”; for “QVQLVESVGGIVQAGGSLRLSCAASGITLYWYAMGWYRQAPGKERELVAAISRRGGTTYYADSVKGRFTISRDNAKINVFLQMHSLNPEDTAVYYCAKAPDTQTSWSRQEGTYWGQGTQVTVSS”: “low polyreactivity”.
